The record followed here is US10227388B2, “Peptides and combination of peptides for use in immunotherapy against non-small cell lung cancer and other cancers” (immatics biotechnologies GmbH, priority 2015, dated 2019).

This assay concerns the target HLA-A*02:01 (Homo sapiens, UniProt P04439, D140Y/D185E/D98H/E176V/E277Q/G131W/G231S/I119V/I121R/I166T/I218V/L300P/L318F/N151K/N90K/P208A/P217A/Q86G/Q94H/R138H/R169H/T345S). In words: MHC binding assay (UV-ligand exchange, ELISA, peptide exchange yield). Particulars: binding of HLA-class I restricted peptides to HLA-A*02:01. An excerpt:
Candidate peptides for T cell based therapies according to the present invention were further tested for their MHC binding capacity (affinity). The individual peptide-MHC complexes were produced by UV-ligand exchange, where a UV-sensitive peptide is cleaved upon UV-irradiation, and exchanged with the peptide of interest as analyzed. Only peptide candidates that can effectively bind and stabilize the peptide-receptive MHC molecules prevent dissociation of the MHC complexes. To determine the yield of the exchange reaction, an ELISA was performed based on the detection of the light chain ([…]) of stabilized MHC complexes. The assay was performed as generally described in Rodenko et al. (Rodenko et al., 2006).
96 well MAXISorp plates (NUNC) were coated over night with 2-ug/ml streptavidin in PBS at room temperature, washed 4× and blocked for 1 h at 37° C. in 2% BSA containing blocking buffer. […] Peptide-MHC monomers of the UV-exchange reaction were diluted 100 fold in blocking buffer. Samples were incubated for 1 h at 37° C., washed four times, incubated with 2-ug/ml HRP conjugated anti-β2m for 1 h at 37° C., washed again and detected with TMB solution that is stopped with […]. Absorption was measured at 450 nm. Candidate peptides that show a high exchange yield (preferably higher than 50%, most preferred higher than 75%) are generally preferred for a generation and production of antibodies or fragments thereof, and/or T cell receptors or fragments thereof, as they show sufficient avidity to the MHC molecules and prevent dissociation of the MHC complexes.
Consider “69 (FQLDPSSGVLVTV; listed as Homo sapiens) [compound 69]”, for which the “Peptide exchange (MHC class I binding score, peptide exchange yield)” value (shortened to “Peptide exchange”) is given as “″+++″ (≥50% = +++)”. The entry for “70 (GLLDYPVGV; listed as Homo sapiens) [compound 70]” is “″+++″ (≥50% = +++)”. The entry for “71 (GILARIASV; listed as Homo sapiens) [compound 71]” is “″+++″ (≥50% = +++)”; for “72 (SLLELDGINL; listed as Homo sapiens) [compound 72]” it is “″+++″ (≥50% = +++)”. The entry for “73 (NIFDLQIYV; listed as Homo sapiens) [compound 73]” is “″+++″ (≥50% = +++)”; for “74 (ALLDPEVLSIFV; listed as Homo sapiens) [compound 74]” it is “″+++″ (≥50% = +++)”. Consider “75 (GLLEVMVNL; listed as Homo sapiens) [compound 75]”, for which the “Peptide exchange” value is reported as “″+++″ (≥50% = +++)”.

For “76 (ILIDSIYKV; listed as Homo sapiens) [compound 76]”, the “Peptide exchange” value is given as “″+++″ (≥50% = +++)”. Turning to “77 (ILVEADGAWVV; listed as Homo sapiens) [compound 77]”, the “Peptide exchange” value is given as “″++++″ (≥75% = ++++)”. For the substance “78 (SLFSSLEPQIQPV; listed as Homo sapiens) [compound 78]”, the “Peptide exchange” value is recorded as “″+++″ (≥50% = +++)”. The entry for “80 (FLYDNLVESL; listed as Homo sapiens) [compound 80]” is “″++″ (≥20% = ++)”. The entry for “81 (FLFSQLQYL; listed as Homo sapiens) [compound 81]” is “″++″ (≥20% = ++)”. With “82 (FLSSVTYNL; listed as Homo sapiens) [compound 82]”, the “Peptide exchange” value is recorded as “″+++″ (≥50% = +++)”. In the case of “83 (ILAPTVMMI; listed as Homo sapiens) [compound 83]”, the “Peptide exchange” value is “″+++″ (≥50% = +++)”. For “84 (VTFGEKLLGV; listed as Homo sapiens) [compound 84]”, the “Peptide exchange” value is recorded as “″++″ (≥20% = ++)”.

As to “85 (KMSELRVTL; listed as Homo sapiens) [compound 85]”, the “Peptide exchange” value is “″+++″ (≥50% = +++)”. To “86 (NLIGKIENV; listed as Homo sapiens) [compound 86]” belongs “″+++″ (≥50% = +++)”; to “87 (ALPEAPAPLLPHIT; listed as Homo sapiens) [compound 87]”, “″++″ (≥20% = ++)”. The entry for “88 (FLLVGDLMAV; listed as Homo sapiens) [compound 88]” is “″+++″ (≥50% = +++)”; for “89 (YILPTETIYV; listed as Homo sapiens) [compound 89]” it is “″++++″ (≥75% = ++++)”; for “90 (TLLQIIETV; listed as Homo sapiens) [compound 90]” it is “″+++″ (≥50% = +++)”. The entry for “91 (IMQDFPAEIFL; listed as Homo sapiens) [compound 91]” is “″++++″ (≥75% = ++++)”. As for “92 (YLIPFTGIVGL; listed as Homo sapiens) [compound 92]”, the “Peptide exchange” value was “″++″ (≥20% = ++)”. The entry for “93 (LLQAIKLYL; listed as Homo sapiens) [compound 93]” is “″++″ (≥20% = ++)”.

For “94 (YLIDIKTIAI; listed as Homo sapiens) [compound 94]”, the “Peptide exchange” value is “″++″ (≥20% = ++)”.

Turning to “95 (SVIPQIQKV; listed as Homo sapiens) [compound 95]”, the “Peptide exchange” value is recorded as “″+++″ (≥50% = +++)”. Turning to “96 (YIFTDNPAAV; listed as Homo sapiens) [compound 96]”, the “Peptide exchange” value was “″+++″ (≥50% = +++)”. “97 (SLINGSFLV; listed as Homo sapiens) [compound 97]”: the “Peptide exchange” value is on record as “″+++″ (≥50% = +++)”.

In the case of “98 (LIIDQADIYL; listed as Homo sapiens) [compound 98]”, the “Peptide exchange” value is recorded as “″+++″ (≥50% = +++)”. Consider “99 (ALVSKGLATV; listed as Homo sapiens) [compound 99]”, for which the “Peptide exchange” value is given as “″++″ (≥20% = ++)”. The entry for “100 (YLLSTNAQL; listed as Homo sapiens) [compound 100]” is “″++++″ (≥75% = ++++)”; for “101 (ILVGGGALATV; listed as Homo sapiens) [compound 101]” it is “″+++″ (≥50% = +++)”. To “102 (YLFESEGLVL; listed as Homo sapiens) [compound 102]” belongs “″+++″ (≥50% = +++)”; to “103 (TLAEEVVAL; listed as Homo sapiens) [compound 103]”, “″+++″ (≥50% = +++)”; to “104 (STMEQNFLL; listed as Homo sapiens) [compound 104]”, “″++++″ (≥75% = ++++)”.

As for “106 (LLYDAVHIVSV; listed as Homo sapiens) [compound 106]”, the “Peptide exchange” value is on record as “″+++″ (≥50% = +++)”. As to “107 (FLQPVDDTQHL; listed as Homo sapiens) [compound 107]”, the “Peptide exchange” value is recorded as “″+++″ (≥50% = +++)”. To “108 (ALFPGVALLLA; listed as Homo sapiens) [compound 108]” belongs “″++++″ (≥75% = ++++)”; to “109 (IILSILEQA; listed as Homo sapiens) [compound 109]”, “″++++″ (≥75% = ++++)”.

Turning to “110 (FLSQVDFEL; listed as Homo sapiens) [compound 110]”, the “Peptide exchange” value was “″+++″ (≥50% = +++)”. With “111 (YVWGFYPAEV; listed as Homo sapiens) [compound 111]”, the “Peptide exchange” value was “″+++″ (≥50% = +++)”. The entry for “114 (SLVGEPILQNV; listed as Homo sapiens) [compound 114]” is “″++″ (≥20% = ++)”; for “115 (AIAGAGILYGV; listed as Homo sapiens) [compound 115]” it is “″++″ (≥20% = ++)”. Consider “116 (YHIDEEVGF; listed as Homo sapiens) [compound 116]”, for which the “Peptide exchange” value was “″+″ (≥10% = +)”.

For “117 (ILPDGEDFLAV; listed as Homo sapiens) [compound 117]”, the “Peptide exchange” value is on record as “″+++″ (≥50% = +++)”. The entry for “119 (FLYIGDIVSL; listed as Homo sapiens) [compound 119]” is “″++++″ (≥75% = ++++)”.
